Data published in the RNAGym collection of RNA variant scans (doi:10.1021/acssynbio.7b00057).

B1: Pistol ribozyme (parent)
chain: GGGUCGUUGUUCCAUAAUCGCGUGGAUAUGGCACGCAAGUUUCUACCGGGCACCGUAAAUGUCCGACUGGAGCCGUUCGGGCGGCUAUAAACAGACCUCAGGCCCGAAGCGUGGCGGCACCUGCCGCCGGUGGUAAAAAAGAUCGGAAGAGCACACGUCU

Variants of: B1
Experiment: aptazyme ON/OFF ratio, guanine; higher = stronger switching; co-transcriptional cleavage with and without guanine

Variant | aptazyme ON/OFF ratio
GGGUCGGACGUCCAUAAUCGCGUGGAUAUGGCACGCAAGUUUCUACCGGGCACCGUAAAUGUCCGACUGGAGCCGUUCGGGCGGCUAUAAACAGACCUCAGGCCCGAAGCGUGGCGGCACCUGCCGCCGGUGGUAAAAAAGAUCGGAAGAGCACACGUCU [U7G U8A G9C U10G] | 1.1
GGGUCGGACGAAGAUAAUCGCGUGGAUAUGGCACGCAAGUUUCUACCGGGCACCGUAAAUGUCCGACUGGAGCCGUUCGGGCGGCUAUAAACAGACCUCAGGCCCGAAGCGUGGCGGCACCUGCCGCCGGUGGUAAAAAAGAUCGGAAGAGCACACGUCU [U7G U8A G9C U10G U11A C12A C13G] | 0.999
GGGUCGGACGAAUAUAAUCGCGUGGAUAUGGCACGCAAGUUUCUACCGGGCACCGUAAAUGUCCGACUGGAGCCGUUCGGGCGGCUAUAAACAGACCUCAGGCCCGAAGCGUGGCGGCACCUGCCGCCGGUGGUAAAAAAGAUCGGAAGAGCACACGUCU [U7G U8A G9C U10G U11A C12A C13U] | 1.03
GGGUCGGACGAAAAUAAUCGCGUGGAUAUGGCACGCAAGUUUCUACCGGGCACCGUAAAUGUCCGACUGGAGCCGUUCGGGCGGCUAUAAACAGACCUCAGGCCCGAAGCGUGGCGGCACCUGCCGCCGGUGGUAAAAAAGAUCGGAAGAGCACACGUCU [U7G U8A G9C U10G U11A C12A C13A] | 1.04
GGGUCGGACGUCAAUAAUCGCGUGGAUAUGGCACGCAAGUUUCUACCGGGCACCGUAAAUGUCCGACUGGAGCCGUUCGGGCGGCUAUAAACAGACCUCAGGCCCGAAGCGUGGCGGCACCUGCCGCCGGUGGUAAAAAAGAUCGGAAGAGCACACGUCU [U7G U8A G9C U10G C13A] | 1.11
GGGUCGGACGUCUAUAAUCGCGUGGAUAUGGCACGCAAGUUUCUACCGGGCACCGUAAAUGUCCGACUGGAGCCGUUCGGGCGGCUAUAAACAGACCUCAGGCCCGAAGCGUGGCGGCACCUGCCGCCGGUGGUAAAAAAGAUCGGAAGAGCACACGUCU [U7G U8A G9C U10G C13U] | 1.1
GGGUCGGACGUCGAUAAUCGCGUGGAUAUGGCACGCAAGUUUCUACCGGGCACCGUAAAUGUCCGACUGGAGCCGUUCGGGCGGCUAUAAACAGACCUCAGGCCCGAAGCGUGGCGGCACCUGCCGCCGGUGGUAAAAAAGAUCGGAAGAGCACACGUCU [U7G U8A G9C U10G C13G] | 1.09
GGGUCGGACCGCUAUAAUCGCGUGGAUAUGGCACGCAAGUUUCUACCGGGCACCGUAAAUGUCCGACUGGAGCCGUUCGGGCGGCUAUAAACAGACCUCAGGCCCGAAGCGUGGCGGCACCUGCCGCCGGUGGUAAAAAAGAUCGGAAGAGCACACGUCU [U7G U8A G9C U10C U11G C13U] | 1.03
GGGUCGGACCGCAAUAAUCGCGUGGAUAUGGCACGCAAGUUUCUACCGGGCACCGUAAAUGUCCGACUGGAGCCGUUCGGGCGGCUAUAAACAGACCUCAGGCCCGAAGCGUGGCGGCACCUGCCGCCGGUGGUAAAAAAGAUCGGAAGAGCACACGUCU [U7G U8A G9C U10C U11G C13A] | 1.04
GGGUCGGACCGCGAUAAUCGCGUGGAUAUGGCACGCAAGUUUCUACCGGGCACCGUAAAUGUCCGACUGGAGCCGUUCGGGCGGCUAUAAACAGACCUCAGGCCCGAAGCGUGGCGGCACCUGCCGCCGGUGGUAAAAAAGAUCGGAAGAGCACACGUCU [U7G U8A G9C U10C U11G C13G] | 1.03
GGGUCGGACGCCCAUAAUCGCGUGGAUAUGGCACGCAAGUUUCUACCGGGCACCGUAAAUGUCCGACUGGAGCCGUUCGGGCGGCUAUAAACAGACCUCAGGCCCGAAGCGUGGCGGCACCUGCCGCCGGUGGUAAAAAAGAUCGGAAGAGCACACGUCU [U7G U8A G9C U10G U11C] | 1.03
GGGUCGGACGACCAUAAUCGCGUGGAUAUGGCACGCAAGUUUCUACCGGGCACCGUAAAUGUCCGACUGGAGCCGUUCGGGCGGCUAUAAACAGACCUCAGGCCCGAAGCGUGGCGGCACCUGCCGCCGGUGGUAAAAAAGAUCGGAAGAGCACACGUCU [U7G U8A G9C U10G U11A] | 1.04
GGGUCGGACGAUCAUAAUCGCGUGGAUAUGGCACGCAAGUUUCUACCGGGCACCGUAAAUGUCCGACUGGAGCCGUUCGGGCGGCUAUAAACAGACCUCAGGCCCGAAGCGUGGCGGCACCUGCCGCCGGUGGUAAAAAAGAUCGGAAGAGCACACGUCU [U7G U8A G9C U10G U11A C12U] | 1.02
GGGUCGGACGAACAUAAUCGCGUGGAUAUGGCACGCAAGUUUCUACCGGGCACCGUAAAUGUCCGACUGGAGCCGUUCGGGCGGCUAUAAACAGACCUCAGGCCCGAAGCGUGGCGGCACCUGCCGCCGGUGGUAAAAAAGAUCGGAAGAGCACACGUCU [U7G U8A G9C U10G U11A C12A] | 1
GGGUCGGACGAGCAUAAUCGCGUGGAUAUGGCACGCAAGUUUCUACCGGGCACCGUAAAUGUCCGACUGGAGCCGUUCGGGCGGCUAUAAACAGACCUCAGGCCCGAAGCGUGGCGGCACCUGCCGCCGGUGGUAAAAAAGAUCGGAAGAGCACACGUCU [U7G U8A G9C U10G U11A C12G] | 1.06
GGGUCGGACGUGCAUAAUCGCGUGGAUAUGGCACGCAAGUUUCUACCGGGCACCGUAAAUGUCCGACUGGAGCCGUUCGGGCGGCUAUAAACAGACCUCAGGCCCGAAGCGUGGCGGCACCUGCCGCCGGUGGUAAAAAAGAUCGGAAGAGCACACGUCU [U7G U8A G9C U10G C12G] | 1.06
GGGUCGGACGUUCAUAAUCGCGUGGAUAUGGCACGCAAGUUUCUACCGGGCACCGUAAAUGUCCGACUGGAGCCGUUCGGGCGGCUAUAAACAGACCUCAGGCCCGAAGCGUGGCGGCACCUGCCGCCGGUGGUAAAAAAGAUCGGAAGAGCACACGUCU [U7G U8A G9C U10G C12U] | 1.03
GGGUCGGACGUACAUAAUCGCGUGGAUAUGGCACGCAAGUUUCUACCGGGCACCGUAAAUGUCCGACUGGAGCCGUUCGGGCGGCUAUAAACAGACCUCAGGCCCGAAGCGUGGCGGCACCUGCCGCCGGUGGUAAAAAAGAUCGGAAGAGCACACGUCU [U7G U8A G9C U10G C12A] | 1.02

Variant | aptazyme ON/OFF ratio
GGGUCGGACGAGGAUAAUCGCGUGGAUAUGGCACGCAAGUUUCUACCGGGCACCGUAAAUGUCCGACUGGAGCCGUUCGGGCGGCUAUAAACAGACCUCAGGCCCGAAGCGUGGCGGCACCUGCCGCCGGUGGUAAAAAAGAUCGGAAGAGCACACGUCU [U7G U8A G9C U10G U11A C12G C13G] | 1.04
GGGUCGGACGAGUAUAAUCGCGUGGAUAUGGCACGCAAGUUUCUACCGGGCACCGUAAAUGUCCGACUGGAGCCGUUCGGGCGGCUAUAAACAGACCUCAGGCCCGAAGCGUGGCGGCACCUGCCGCCGGUGGUAAAAAAGAUCGGAAGAGCACACGUCU [U7G U8A G9C U10G U11A C12G C13U] | 1.07
GGGUCGGACGAGAAUAAUCGCGUGGAUAUGGCACGCAAGUUUCUACCGGGCACCGUAAAUGUCCGACUGGAGCCGUUCGGGCGGCUAUAAACAGACCUCAGGCCCGAAGCGUGGCGGCACCUGCCGCCGGUGGUAAAAAAGAUCGGAAGAGCACACGUCU [U7G U8A G9C U10G U11A C12G C13A] | 1.01
GGGUCGGACGACAAUAAUCGCGUGGAUAUGGCACGCAAGUUUCUACCGGGCACCGUAAAUGUCCGACUGGAGCCGUUCGGGCGGCUAUAAACAGACCUCAGGCCCGAAGCGUGGCGGCACCUGCCGCCGGUGGUAAAAAAGAUCGGAAGAGCACACGUCU [U7G U8A G9C U10G U11A C13A] | 1.05
GGGUCGGACGACGAUAAUCGCGUGGAUAUGGCACGCAAGUUUCUACCGGGCACCGUAAAUGUCCGACUGGAGCCGUUCGGGCGGCUAUAAACAGACCUCAGGCCCGAAGCGUGGCGGCACCUGCCGCCGGUGGUAAAAAAGAUCGGAAGAGCACACGUCU [U7G U8A G9C U10G U11A C13G] | 1.02
GGGUCGGACGACUAUAAUCGCGUGGAUAUGGCACGCAAGUUUCUACCGGGCACCGUAAAUGUCCGACUGGAGCCGUUCGGGCGGCUAUAAACAGACCUCAGGCCCGAAGCGUGGCGGCACCUGCCGCCGGUGGUAAAAAAGAUCGGAAGAGCACACGUCU [U7G U8A G9C U10G U11A C13U] | 1.03
GGGUCGGACGUGAAUAAUCGCGUGGAUAUGGCACGCAAGUUUCUACCGGGCACCGUAAAUGUCCGACUGGAGCCGUUCGGGCGGCUAUAAACAGACCUCAGGCCCGAAGCGUGGCGGCACCUGCCGCCGGUGGUAAAAAAGAUCGGAAGAGCACACGUCU [U7G U8A G9C U10G C12G C13A] | 1.06
GGGUCGGACGUGUAUAAUCGCGUGGAUAUGGCACGCAAGUUUCUACCGGGCACCGUAAAUGUCCGACUGGAGCCGUUCGGGCGGCUAUAAACAGACCUCAGGCCCGAAGCGUGGCGGCACCUGCCGCCGGUGGUAAAAAAGAUCGGAAGAGCACACGUCU [U7G U8A G9C U10G C12G C13U] | 1.18
GGGUCGGACGUGGAUAAUCGCGUGGAUAUGGCACGCAAGUUUCUACCGGGCACCGUAAAUGUCCGACUGGAGCCGUUCGGGCGGCUAUAAACAGACCUCAGGCCCGAAGCGUGGCGGCACCUGCCGCCGGUGGUAAAAAAGAUCGGAAGAGCACACGUCU [U7G U8A G9C U10G C12G C13G] | 1.08
GGGUCGGACGAUGAUAAUCGCGUGGAUAUGGCACGCAAGUUUCUACCGGGCACCGUAAAUGUCCGACUGGAGCCGUUCGGGCGGCUAUAAACAGACCUCAGGCCCGAAGCGUGGCGGCACCUGCCGCCGGUGGUAAAAAAGAUCGGAAGAGCACACGUCU [U7G U8A G9C U10G U11A C12U C13G] | 1.06
GGGUCGGACGAUUAUAAUCGCGUGGAUAUGGCACGCAAGUUUCUACCGGGCACCGUAAAUGUCCGACUGGAGCCGUUCGGGCGGCUAUAAACAGACCUCAGGCCCGAAGCGUGGCGGCACCUGCCGCCGGUGGUAAAAAAGAUCGGAAGAGCACACGUCU [U7G U8A G9C U10G U11A C12U C13U] | 1.03
GGGUCGGACGAUAAUAAUCGCGUGGAUAUGGCACGCAAGUUUCUACCGGGCACCGUAAAUGUCCGACUGGAGCCGUUCGGGCGGCUAUAAACAGACCUCAGGCCCGAAGCGUGGCGGCACCUGCCGCCGGUGGUAAAAAAGAUCGGAAGAGCACACGUCU [U7G U8A G9C U10G U11A C12U C13A] | 1.03
GGGUCGGACGUAAAUAAUCGCGUGGAUAUGGCACGCAAGUUUCUACCGGGCACCGUAAAUGUCCGACUGGAGCCGUUCGGGCGGCUAUAAACAGACCUCAGGCCCGAAGCGUGGCGGCACCUGCCGCCGGUGGUAAAAAAGAUCGGAAGAGCACACGUCU [U7G U8A G9C U10G C12A C13A] | 1.06
GGGUCGGACGUAUAUAAUCGCGUGGAUAUGGCACGCAAGUUUCUACCGGGCACCGUAAAUGUCCGACUGGAGCCGUUCGGGCGGCUAUAAACAGACCUCAGGCCCGAAGCGUGGCGGCACCUGCCGCCGGUGGUAAAAAAGAUCGGAAGAGCACACGUCU [U7G U8A G9C U10G C12A C13U] | 1.05
GGGUCGGACGUAGAUAAUCGCGUGGAUAUGGCACGCAAGUUUCUACCGGGCACCGUAAAUGUCCGACUGGAGCCGUUCGGGCGGCUAUAAACAGACCUCAGGCCCGAAGCGUGGCGGCACCUGCCGCCGGUGGUAAAAAAGAUCGGAAGAGCACACGUCU [U7G U8A G9C U10G C12A C13G] | 1.03
GGGUCGGACGUUUAUAAUCGCGUGGAUAUGGCACGCAAGUUUCUACCGGGCACCGUAAAUGUCCGACUGGAGCCGUUCGGGCGGCUAUAAACAGACCUCAGGCCCGAAGCGUGGCGGCACCUGCCGCCGGUGGUAAAAAAGAUCGGAAGAGCACACGUCU [U7G U8A G9C U10G C12U C13U] | 1.06
GGGUCGGACGUUGAUAAUCGCGUGGAUAUGGCACGCAAGUUUCUACCGGGCACCGUAAAUGUCCGACUGGAGCCGUUCGGGCGGCUAUAAACAGACCUCAGGCCCGAAGCGUGGCGGCACCUGCCGCCGGUGGUAAAAAAGAUCGGAAGAGCACACGUCU [U7G U8A G9C U10G C12U C13G] | 1.03
GGGUCGGACGUUAAUAAUCGCGUGGAUAUGGCACGCAAGUUUCUACCGGGCACCGUAAAUGUCCGACUGGAGCCGUUCGGGCGGCUAUAAACAGACCUCAGGCCCGAAGCGUGGCGGCACCUGCCGCCGGUGGUAAAAAAGAUCGGAAGAGCACACGUCU [U7G U8A G9C U10G C12U C13A] | 1.06
